Patent US6849712B1, “Peptides with β1 integrin subunit dependent cell adhesion modulating activity” (Regents of the University of Minnesota, priority 1998, dated 2005)
“Also recorded” adds a separate entry of the source. Where no end group is shown, it is not given here. [ ]: non-standard residue; d: D form.

Target: α4β1 integrin (Homo sapiens, UniProt P05556+P13612)
Test: Inhibition of α4β1 dependent adhesion of 8A2 stimulated Ramos cells to IIICS-GST
Format: cell-based
Set-up: endogenous in cells; host or cells: Ramos cells
Details: Ramos cells activated with mAb 8A2, preincubated with peptide, result in words
Text: IIICS-GST is recombinantly produced fusion protein which contains a fragment from the type III CS region (“IIICS”) of plasma fibronectin fused to glutathione-S-transferase (“GST”). The fibronectin fragment corresponds to fibronectin amino acid residues 1961 to 2039 (sequence numbering for fibronectin as designated in U.S. Pat. No. 4,839,464) and includes the […] (SEQ ID NO:46) amino acid sequence (“CS1”; fibronectin residues 1961-1985). […] In the assay, a 96-well plate was coated with the substrate IIICS-GST. Ramos cells stimulated with the β1 activating monoclonal antibody 8A2 (“Ab 8A2”) were preincubated with one of the peptides to be evaluated for their ability to adhere to IIICS-GST.
The fusion protein can be constructed by first using PCR primers to amplify the coding sequence for residues 1961-2039 of plama fibronectin. The PCR product can be introduced into a suitable bacterial expression vector in frame with the gene for GST. The resulting vector can be transformed and expressed in a suitable host cell, such as E Coli, to produce the fusion protein. If desired, the fusion protein can be purified using a glutathione column.
A 96-well plate was coated in triplicate with […] of IIICS-GST diluted to […] in PBS containing 1 mM CaCl2, MgCl2 (“PBS/cations”) and incubated overnight at 37° C. The IIICS-GST solution was removed and the wells were blocked with 150 μ/well of PBS/cations containing 0.3% BSA for 1-2 hours at 37° C. During the assay each well contained 100 μl of Ramos cells (10,000 cells/well) with or without peptide. Ramos cells were washed 3 times in adhesion media (DMEM without phenol red containing 20 mM HEPES and 3 mg/ml BSA). Cells were counted and resuspended at 200,000 cells/ml. Concentrated Ramos cells were labeled for 20 minutes at 37° C. with 50 μg of the fluorescent label BCECF resuspended in 30 μl of dimethylsulfoxide (“DMSO”). The labeled cells were centrifuged and resuspended in adhesion media at a concentration of 200,000 cells/ml. The cells were activated with the activating Ab 8A2 at a concentration of 2 μg/ml purified IgG or 1:1000 culture supernatant.
While the cells were being labeled, inhibiting peptide dilutions were prepared. Lyophilized peptides were weighed and resuspended in adhesion media at a stock concentration of twice the maximal inhibitory concentration. If a peptide was difficult to get into solution, it was initially resuspended in 30 μl of DMSO. If a peptide needed to be suspended in DMSO, all of the eptides in that particular experiment (including the controls) were suspended in 30 μl of DMSO. […] The dose-dependent dilutions of peptides were prepared using adhesion media to dilute the stock peptide. Labeled cells were mixed with peptide dilutions for 5 minutes at 37° C. at a final concentration of 100,000 cells/ml and appropriate final peptide concentrations.
The blocking solution was removed from the 96-well plate and the cell/peptide mixture is added at 100 μl/well (10,000 cells/well) and incubated for 30 minutes at 37° C. An aliquot of standard cells/peptide (100 μl) was placed at 37° C. for quantitating adhesion. Using aspiration, non-adherent cells were removed from the plate. The standard cells were centrifuged and resuspended in […] of adhesion media. The standard cells were added to empty wells at 100, 80, 60, 40, 20 and 0 μl /well representing 100%, 80%, 60%, 40%, 20% and 0% adhesion, respectively. The plate fluorescence was read at excitation 485 and emission 530. Cell adhesion was represented as percent input cells remaining adherent and was determined by a standard curve of the fluorescence obtained with the standard cells. The experimental fluorescence readings were extrapolated from the standard curve to obtain percent adhesion.

α4β1 integrin, sequence (P13612 34-1032): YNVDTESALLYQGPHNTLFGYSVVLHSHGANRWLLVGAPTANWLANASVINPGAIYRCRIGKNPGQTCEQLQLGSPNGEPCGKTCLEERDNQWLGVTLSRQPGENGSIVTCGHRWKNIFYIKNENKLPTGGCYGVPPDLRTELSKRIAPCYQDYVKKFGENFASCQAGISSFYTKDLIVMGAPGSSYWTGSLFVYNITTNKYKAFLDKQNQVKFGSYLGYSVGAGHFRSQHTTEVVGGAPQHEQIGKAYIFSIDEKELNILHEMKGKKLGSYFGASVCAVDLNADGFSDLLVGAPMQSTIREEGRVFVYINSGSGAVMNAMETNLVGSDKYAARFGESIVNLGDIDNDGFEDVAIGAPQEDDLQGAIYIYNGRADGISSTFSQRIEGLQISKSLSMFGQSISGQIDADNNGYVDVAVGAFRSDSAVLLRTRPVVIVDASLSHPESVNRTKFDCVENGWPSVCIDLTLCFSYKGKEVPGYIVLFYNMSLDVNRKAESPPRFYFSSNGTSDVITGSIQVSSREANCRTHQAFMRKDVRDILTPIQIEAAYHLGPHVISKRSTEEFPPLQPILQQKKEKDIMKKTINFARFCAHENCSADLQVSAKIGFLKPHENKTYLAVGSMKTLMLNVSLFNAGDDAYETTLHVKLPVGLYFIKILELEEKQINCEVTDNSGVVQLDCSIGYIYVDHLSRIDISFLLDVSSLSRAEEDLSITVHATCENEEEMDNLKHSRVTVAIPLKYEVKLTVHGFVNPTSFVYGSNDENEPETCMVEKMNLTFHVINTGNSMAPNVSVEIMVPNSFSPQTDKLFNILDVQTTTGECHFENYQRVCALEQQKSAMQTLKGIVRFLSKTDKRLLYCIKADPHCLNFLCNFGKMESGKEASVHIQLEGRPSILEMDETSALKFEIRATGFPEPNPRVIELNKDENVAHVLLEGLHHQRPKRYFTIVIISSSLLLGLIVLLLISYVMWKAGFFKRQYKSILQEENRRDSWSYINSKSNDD
α4β1 integrin, sequence (P05556 21-798): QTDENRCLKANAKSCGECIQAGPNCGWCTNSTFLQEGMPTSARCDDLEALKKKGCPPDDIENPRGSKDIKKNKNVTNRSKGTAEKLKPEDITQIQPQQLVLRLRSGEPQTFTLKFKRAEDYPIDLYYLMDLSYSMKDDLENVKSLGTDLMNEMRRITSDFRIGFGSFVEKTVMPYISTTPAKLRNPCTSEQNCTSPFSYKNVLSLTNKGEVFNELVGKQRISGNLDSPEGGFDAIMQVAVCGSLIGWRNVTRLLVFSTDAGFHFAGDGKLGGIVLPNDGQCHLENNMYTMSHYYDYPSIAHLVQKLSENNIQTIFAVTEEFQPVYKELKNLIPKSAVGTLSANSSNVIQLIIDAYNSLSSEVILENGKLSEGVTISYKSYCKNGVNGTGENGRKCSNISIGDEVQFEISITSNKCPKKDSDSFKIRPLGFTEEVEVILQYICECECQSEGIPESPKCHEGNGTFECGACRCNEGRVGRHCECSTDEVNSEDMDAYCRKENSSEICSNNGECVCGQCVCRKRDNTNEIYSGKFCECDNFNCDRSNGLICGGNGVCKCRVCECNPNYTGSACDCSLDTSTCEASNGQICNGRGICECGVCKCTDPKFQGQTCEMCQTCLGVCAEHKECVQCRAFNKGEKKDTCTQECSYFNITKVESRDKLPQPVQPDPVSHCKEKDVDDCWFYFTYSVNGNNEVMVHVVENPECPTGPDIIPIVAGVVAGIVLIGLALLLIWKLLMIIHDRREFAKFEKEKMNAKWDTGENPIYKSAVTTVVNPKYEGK

Molecule	inhibition of adhesion of 8A2 stimulated Ramos cells to IIICS-GST
WQPPRARYI (listed as Homo sapiens) [SEQ ID NO:36]	inactive
PRQAWRPIY (listed as Homo sapiens) [SEQ ID NO:18]	exhibit the capability of inhibiting β1 integrin subunit dependent adhesion; also recorded: inhibited cell adhesion
ARIY (listed as Homo sapiens) [SEQ ID NO:26]	comparable on an equimolar basis to that of Y-tagged FN C/H V
WQPPRARIF (listed as Homo sapiens) [SEQ ID NO:32]	comparable to that of FN C/H V+Y
WAPPRARIY (listed as Homo sapiens) [SEQ ID NO:4]	capable of inhibiting β1 integrin dependent cell adhesion
WQPPRARLY (listed as Homo sapiens) [SEQ ID NO:28]	comparable to that of FN C/H V+Y
PPRARIY (listed as Homo sapiens) [SEQ ID NO:23]	also exhibited α4β1 integrin dependent cell adhesion inhibition activity
WQPPRAAIY (listed as Homo sapiens) [SEQ ID NO:8]	capable of inhibiting β1 integrin dependent cell adhesion
PRARIY-OH [SEQ ID NO:24, PRARIY]	comparable on an equimolar basis to that of the 9 residue peptide, Y-tagged FN C/H V; also recorded: able to inhibit
RARIY (listed as Homo sapiens) [SEQ ID NO:25]	comparable on an equimolar basis to that of the 9 residue peptide, Y-tagged FN C/H V
WQPPDADIY (listed as Homo sapiens) [SEQ ID NO:38]	inhibits the 8A2 stimulated adhesion of Ramos cells at least as strongly as FN-C/H V+Y; also recorded: does not alter the ability of the peptide to inhibit β1 integrin subunit dependent adhesion
WQPPRARVY (listed as Homo sapiens) [SEQ ID NO:29]	comparable to that of FN C/H V+Y
RARITGYIY (listed as Homo sapiens) [SEQ ID NO:13]	exhibit the capability of inhibiting β1 integrin subunit dependent adhesion; also recorded: exhibited α4β1 integrin dependent cell adhesion inhibition
WQPPRARIW (listed as Homo sapiens) [SEQ ID NO:33]	comparable to that of FN C/H V+Y
WQPIYPRAR (listed as Homo sapiens) [SEQ ID NO:35]	inactive
AQPPRARIY (listed as Homo sapiens) [SEQ ID NO:3]	capable of inhibiting β1 integrin dependent cell adhesion
PRARI (listed as Homo sapiens) [SEQ ID NO:39]	not PRARI was able to inhibit
WQPPAARIY (listed as Homo sapiens) [SEQ ID NO:7]	capable of inhibiting β1 integrin dependent cell adhesion
RPQIPWARY (listed as Homo sapiens) [SEQ ID NO:2]	did not inhibit cell adhesion
QPPRARIY (listed as Homo sapiens) [SEQ ID NO:22]	also exhibited α4β1 integrin dependent cell adhesion inhibition activity
WQPPRARI (listed as Homo sapiens) [SEQ ID NO:37, reference compound]	also inactive
RPAPQRWIY (listed as Homo sapiens) [SEQ ID NO:20]	exhibit the capability of inhibiting β1 integrin subunit dependent adhesion; also recorded: inhibited cell adhesion
IYWQPPRAR (listed as Homo sapiens) [SEQ ID NO:34]	inactive
all D-form of FN-C/H V+Y: all D-form of FN-C/H V+Y (SEQ ID NO:1) ([dW][dQ][dP][dP][dR][dA][dR][dI][dY]; listed as Homo sapiens)	Neither of these two compounds inhibited Ramos cell binding
ARITGYIIY (listed as Homo sapiens) [SEQ ID NO:14]	exhibit the capability of inhibiting β1 integrin subunit dependent adhesion; also recorded: most active peptide; also recorded: inhibited cell adhesion

Same assay, conditions: Ramos cells activated with mAb 8A2, preincubated with peptide, result in words, listed as D-amino acid FN-C/H V−Y

Molecule	inhibition of adhesion of 8A2 stimulated Ramos cells to IIICS-GST
all D-form of FN-C/H V+Y: all D-form of FN-C/H V+Y (SEQ ID NO:1) ([dW][dQ][dP][dP][dR][dA][dR][dI][dY]; listed as Homo sapiens)	unable to inhibit adhesion

Same assay, conditions: Ramos cells activated with mAb 8A2, preincubated with peptide, result in words, listed as retro inverso FN-C/H V+Y

Molecule	inhibition of adhesion of 8A2 stimulated Ramos cells to IIICS-GST
YIRARPPQW (not fully specified (some residues); listed as Homo sapiens) [SEQ ID NO:40]	Neither of these two compounds inhibited Ramos cell binding

Same assay, conditions: Ramos cells activated with mAb 8A2, preincubated with peptide, result in words, listed as retro-inverso FN-C/H V−Y

Molecule	inhibition of adhesion of 8A2 stimulated Ramos cells to IIICS-GST
YIRARPPQW (not fully specified (some residues); listed as Homo sapiens) [SEQ ID NO:40]	unable to inhibit adhesion

Target: α5β1 integrin (UniProt P08648 42-1049; P05556 21-798)
Sequence (P08648 42-1049, chain 1 of 2): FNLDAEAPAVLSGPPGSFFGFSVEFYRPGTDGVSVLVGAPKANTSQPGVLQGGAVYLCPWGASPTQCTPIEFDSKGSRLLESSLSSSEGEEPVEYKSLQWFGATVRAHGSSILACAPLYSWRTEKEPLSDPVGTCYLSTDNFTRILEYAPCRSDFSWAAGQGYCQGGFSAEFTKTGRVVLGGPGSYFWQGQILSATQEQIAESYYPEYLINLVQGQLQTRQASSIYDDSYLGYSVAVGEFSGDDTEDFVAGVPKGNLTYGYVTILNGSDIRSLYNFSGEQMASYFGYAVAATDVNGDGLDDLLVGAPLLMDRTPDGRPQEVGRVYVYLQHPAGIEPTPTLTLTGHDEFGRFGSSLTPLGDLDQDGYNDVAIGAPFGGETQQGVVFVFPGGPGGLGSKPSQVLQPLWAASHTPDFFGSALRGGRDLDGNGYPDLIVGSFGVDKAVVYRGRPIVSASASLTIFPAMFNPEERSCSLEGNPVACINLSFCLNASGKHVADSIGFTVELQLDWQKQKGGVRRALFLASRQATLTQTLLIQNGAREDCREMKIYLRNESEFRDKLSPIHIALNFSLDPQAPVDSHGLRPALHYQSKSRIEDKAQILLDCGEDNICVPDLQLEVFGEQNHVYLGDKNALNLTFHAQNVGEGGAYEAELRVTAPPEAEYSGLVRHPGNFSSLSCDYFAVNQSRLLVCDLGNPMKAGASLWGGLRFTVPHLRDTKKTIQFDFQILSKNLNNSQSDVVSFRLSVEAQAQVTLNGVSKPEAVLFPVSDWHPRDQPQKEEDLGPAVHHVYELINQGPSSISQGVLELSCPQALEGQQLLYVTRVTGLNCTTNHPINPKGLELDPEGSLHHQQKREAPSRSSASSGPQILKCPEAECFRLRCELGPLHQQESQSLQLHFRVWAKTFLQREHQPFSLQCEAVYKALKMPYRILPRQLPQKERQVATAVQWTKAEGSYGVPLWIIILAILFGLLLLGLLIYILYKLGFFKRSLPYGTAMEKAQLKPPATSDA
Sequence (P05556 21-798, chain 2 of 2): as the sequence (P05556 21-798) above
Test: cell-based or functional assay
Details: not given

Molecule	half-maximal inhibitory concentration (K562 adhesion to FN) [mM]
RIY	~0.2
WQPPRARIY [FN-C/H V+Y]	0.2

Tested on: peripheral blood mononuclear cells and spleen cells
Test: not given
Details: reported, Wahl et al.; cited from earlier work

Molecule	inhibition of leukocyte adhesion to fibronectin in vitro
SPPRRARVTY (listed as Homo sapiens) [FN-C/H IV+Y]	inhibit leukocyte adhesion to fibronectin in vitro

Target: T1, α5β1 integrin (Homo sapiens, UniProt P05556+P08648)
T1 construct: erythroleukemic cell line K562, which expresses α5β1 but not α4β1 integrin; endogenous in cells; host or cells: K562 cells
T1 sequence (P08648 42-894 limits assumed): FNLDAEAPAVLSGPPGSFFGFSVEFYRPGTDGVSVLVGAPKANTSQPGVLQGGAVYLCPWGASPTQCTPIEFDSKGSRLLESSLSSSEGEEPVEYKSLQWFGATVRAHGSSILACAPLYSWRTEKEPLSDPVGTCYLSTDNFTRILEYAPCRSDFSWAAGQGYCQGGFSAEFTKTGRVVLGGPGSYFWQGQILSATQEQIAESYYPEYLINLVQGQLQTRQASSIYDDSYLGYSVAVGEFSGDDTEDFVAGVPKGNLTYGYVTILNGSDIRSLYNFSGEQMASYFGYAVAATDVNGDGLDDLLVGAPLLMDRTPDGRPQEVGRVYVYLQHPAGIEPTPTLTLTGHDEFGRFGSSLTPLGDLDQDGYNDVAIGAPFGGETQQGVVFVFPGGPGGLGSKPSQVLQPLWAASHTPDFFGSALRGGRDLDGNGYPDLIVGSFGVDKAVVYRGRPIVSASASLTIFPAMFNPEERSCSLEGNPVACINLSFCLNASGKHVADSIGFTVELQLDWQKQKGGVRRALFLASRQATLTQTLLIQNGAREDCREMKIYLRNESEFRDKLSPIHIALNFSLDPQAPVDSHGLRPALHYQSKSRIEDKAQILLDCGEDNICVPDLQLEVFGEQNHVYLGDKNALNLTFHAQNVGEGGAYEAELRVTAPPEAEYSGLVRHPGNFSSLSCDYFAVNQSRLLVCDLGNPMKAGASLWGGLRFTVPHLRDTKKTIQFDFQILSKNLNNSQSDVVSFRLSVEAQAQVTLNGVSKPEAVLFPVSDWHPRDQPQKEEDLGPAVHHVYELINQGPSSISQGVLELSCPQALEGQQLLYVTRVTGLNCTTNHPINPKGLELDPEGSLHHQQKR
T1 sequence (P08648 895-1049 limits assumed): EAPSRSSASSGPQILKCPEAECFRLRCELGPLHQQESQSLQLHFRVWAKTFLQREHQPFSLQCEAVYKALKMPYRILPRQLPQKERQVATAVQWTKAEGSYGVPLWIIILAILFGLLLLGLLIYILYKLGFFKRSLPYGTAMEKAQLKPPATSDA
T1 sequence (P05556 21-798): as the sequence (P05556 21-798) above
Test: Inhibition of α5β1 integrin dependent Mn+2 stimulated adhesion of K562 cells to fibronectin (FN)
Format: cell-based
Details: 0.84 mM peptide; K562 cells stimulated with 1 mM MnCl2
Experimental: The cell adhesion assay was carried out as described above. […] Each data point represents the mean of triplicate determinations and the error bars represent the standard deviation of the mean. The solid black line represents adhesion to the negative control substrate, BSA.

Molecule	inhibition of K562 adhesion to FN at the maximal concentration tested
N=C(N)NCCC[C@H](N)C(=O)NCC(=O)N[C@@H](CC(=O)O)C(=O)O [RGD, reference compound]	completely inhibited
PRARIY-OH [SEQ ID NO:24, PRARIY]	completely inhibited

Same assay, conditions: K562 cells stimulated with 1 mM MnCl2, adhesion to FN; read-out: half-maximal inhibitory concentration

Molecule	IC50 [µM]
PRARIY-OH [SEQ ID NO:24, PRARIY]	~200

Tested on: α2β1 and α3β1 integrin
Test: Inhibition of α2β1, α3β1 integrin dependent human melanoma M14#5 cell adhesion to laminin and type IV collagen
Format: cell-based
Details: 0.5 mg/ml peptide (0.42 mM), 30 minutes, laminin coated substrate
Experimental: An experiment was conducted to examine the ability of FN-C/H V+Y (SEQ ID NO:1) to inhibit α2β1, α3β1 integrin dependent cell adhesion using an assay based on human melanoma cells (M14#5).
Laminin, type IV collagen and BSA were coated overnight in a 96 well microtiter plate at 10 μg/ml and blocked with 0.3% BSA. M14#5 cells were preincubated with 0.5 mg/ml of peptide (equivalent to 0.42 mM FN-C/H V and scrambled FN-C/H V and 0.17 mM CSI) and allowed to adhere to substrates for 30 minutes.

Molecule	inhibition of M14#5 cell adhesion to laminin
RPQIPWARY (listed as Homo sapiens) [SEQ ID NO:2]	has no effect

Same assay, conditions: 0.5 mg/ml peptide (0.42 mM), 30 minutes, type IV collagen coated substrate

Molecule	inhibition of M14#5 cell adhesion to type IV collagen
RPQIPWARY (listed as Homo sapiens) [SEQ ID NO:2]	has no effect
